In patent US20040248211A1, “ICAM-related protein” (priority 1992, published 2004):

How the values were obtained:
ICAM-R peptides = assay: Multipin peptide ELISA; type: binding, human; details: hybridoma supernatant
Method: The first method for mapping linear epitopes recognized by the ICAM-R specific antibodies of the invention utilized the Multipin Peptide Synthesis System (Chiron Mimotopes Pty. Ltd., Victoria, Australia) which places ten amino acid peptides representing overlapping segments of the protein of interest on the surface of a series of plastic pins. A modified ELISA test is performed to determine binding of a monoclonal antibody to each peptide.
The ELISA to determine binding of the monoclonal antibodies to ICAM-R peptides was run as follows. […] The pins were transferred to plates containing ABTS substrate solution [0.5 mg/ml ABTS, 0.01% weight/volume H2O2 in substrate buffer (17.9 g/L Na2HPO4H2O, 16.8 g/L citric acid monohydrate, pH 4.0)] for 45 minutes at 20° C. with agitation and then the plates were read at 410/495 nm.
Relative reactivity with individual pins was determined after normalizing results for differences in immunoglobulin concentrations in anti-ICAM-R and control hybridoma supernatants and reactivities of positive controls between assays. Mouse IgG levels for each supernatant had been determined by antibody capture ELISA as follows. […] Antibody concentrations of culture supernatant were determined by fitting measured optical densities to the standard curve of the isotype matched control.

ICAM-R on PBL = target: T1, ICAM-R on PBL (Homo sapiens, UniProt P32942); assay: FACS-based competition assay; type: binding; details: 5 μg antibody; equivalent on SKW3
T1 construct: endogenous in cells; host or cells: human peripheral blood leukocytes
T1 sequence (P32942 30-547): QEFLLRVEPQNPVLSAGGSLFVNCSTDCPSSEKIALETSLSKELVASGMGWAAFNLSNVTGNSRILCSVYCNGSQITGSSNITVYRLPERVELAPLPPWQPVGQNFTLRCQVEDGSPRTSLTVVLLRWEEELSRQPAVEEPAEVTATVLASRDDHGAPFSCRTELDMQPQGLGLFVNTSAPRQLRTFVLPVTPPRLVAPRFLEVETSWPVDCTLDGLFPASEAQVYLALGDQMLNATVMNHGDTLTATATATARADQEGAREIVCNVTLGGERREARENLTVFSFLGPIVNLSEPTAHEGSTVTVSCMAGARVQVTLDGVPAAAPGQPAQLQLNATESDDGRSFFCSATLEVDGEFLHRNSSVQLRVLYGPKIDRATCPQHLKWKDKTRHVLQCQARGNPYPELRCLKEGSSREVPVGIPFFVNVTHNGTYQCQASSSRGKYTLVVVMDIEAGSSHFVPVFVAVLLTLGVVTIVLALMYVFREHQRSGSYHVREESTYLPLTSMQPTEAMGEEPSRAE
Method: In the assays, human peripheral blood leukocytes (PBL) obtained by Ficoll Hypaque centrifugation of normal peripheral blood were washed twice in ice cold FACS buffer (PBS containing 0.1% sodium azide and 1% bovine serum albumin) and 2×10^5 cells were incubated in triplicate polypropylene tubes with 5 μg of each of the following antibodies ICR-1.1, ICR-4.2, and control isotype IgG (Sigma). All tubes containing the first stage antibodies were then incubated for 30 minutes at 4° C. and washed twice in cold FACS buffer. To each triplicate tube, 5 μg of each of the following second stage antibodies were added: biotinylated-ICR-1.1, biotinylated-ICR-4.2, biotinylated-anti-rat CD4 (negative control). All second stage antibodies were bibtinylated according to standard procedures as described in Example 12 and all tubes were then incubated for an additional 30 minutes at 4° C. before washing twice in FACS buffer. […] Finally, all tubes were washed twice in FACS buffer and analyzed by flow cytometry (FACScan, Becton-Dickinson).
SKW3 cells were labelled with either 1 μg of antibody ICR-1.1 or ICR-4.2, washed in FACS buffer and incubated with 1 μg biotinylated-ICR-1.1 or biotinylated ICR-4.2. All tubes were then washed in FACS buffer, incubated with Strepavidin-phycoerythrin for an additional 30 minutes at 4° C. and analyzed by FACScan.

B1: ICR-1.1: anti-ICAM-R monoclonal antibody, IgG2a, domain 1, ATCC HB 11053 (antibody, V domains shown)
VH: QVQLQQSGAELAKPGASVKMSCKASGYTFTVYWMHWVKQRPGQGLEWIGYINPNTDYTEYNQRFQDKATLTADKSSSTAYMQLSSLTSEDSAVYYCARWGGNSYGLDYWGQGTSVTVSS
VL: QIVLTQSPALMSASPGEKVTMTCSASSSVSYIYWYQQKPRSSPKPWIYLTSNLASGVPARFSGSGSGASYSLTISIMEAEDAATYYCQQWKSIPLTFGAGTKLELK
reactivity with overlapping ten amino acid ICAM-R peptides (ICAM-R peptides): two overlapping peptides spanning amino acids 13-23
blocking of biotinylated-ICR-1.1 binding (ICAM-R on PBL): did block binding of biotinylated-ICR-1.1
blocking of biotinylated-ICR-4.2 binding (ICAM-R on PBL): did not block binding of monoclonal antibody ICR-4.2
